Molecular target: the molecule itself
Assay: self-assembly into a homododecamer; gel filtration and negative stain electron microscopy

B1: MjTET (TET aminopeptidase of Methanocaldococcus jannaschii, product of gene MJ0555) (enzyme)
chain: MSVVEYLKKLSKLHGISGREDSVREFMKKELEKYCDSVEIDNFGNLIAKRGNKGKKIMIAAHMDEIGLMVKYIDDNGFLKFTKIGGIYDPTILNQKVVVHGSKGDLIGVLGSKPPHRMKEEEKTKIIKYEDMFIDIGAESREEAIEMGVNIGTWVSFLSEVYDLGKNRLTGKAFDDRVGCAVLLEVMKRLSEEDIDCQVYAVGTVQEEVGLKGARVSAFKINPDVAIALDVTIAGDHPGIKKEDAPVDLGKGPVVGIVDASGRGLIAHPKVLDMIKAVSEKYKIDVQWEVGEGGTTDATAIHLTREGIPTGVISVPARYIHTPVEVIDKRDLEKTVELVYNCIKEVNNFF
notes: Untagged recombinant form made in E. coli; It forms a tetrahedral homododecamer; Activity assays were run with 0.1 mM CoCl2; also called MJ0555 protein; TET protein
B1: binds.
